According to publication PMC7904728, “ITSN1 regulates SAM68 solubility through SH3 domain interactions with SAM68 proline-rich motifs”:

Biological target: ITSN1 SH3D-His (UniProt Q15811-2 1063-1150)
Assay: NMR; 300 uM SH3D, 1:1.2 molar ratio; shift perturbations in eight residues; EMSA: 20 mM Tris-HCl pH 7.4, 50 mM KCl, 1 mM Mg, room temperature, 5 min, 0.7% agarose 0.5x TBE; NMR: 298 K, protein dialyzed in 12 mM potassium
Settings: protein: recombinant; tags: His (pET22b); single strand

ITSN1 SH3D-His, sequence (Q15811 1063-1150): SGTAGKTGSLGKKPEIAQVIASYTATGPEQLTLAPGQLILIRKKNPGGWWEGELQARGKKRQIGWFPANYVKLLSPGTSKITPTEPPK

Binder	binding result
TTTTTTTTTTTT (ssDNA) [T12]	binds
CACACACACACA (ssDNA) [CA6]	binds
